Square brackets hold non-standard residues; d marks the D form. Ends that are not written are not given here. * marks the point of attachment. Met(O2) = CS(=O)(=O)CC[C@H](N)C(=O)O; Cha = N[C@@H](CC1CCCCC1)C(=O)O; Bn = c1ccc(C*)cc1

Broadly, the IC50 is the concentration at which inhibition is half-maximal.

In experiment [1] the target is T1, human recombinant receptor VEGFR-1, the form consisting of the seven extracellular domains of the receptor fused to the Fc domain of human IgG (R&D Systems, cat No. 321-FL) (human), P17948.
T1 chain: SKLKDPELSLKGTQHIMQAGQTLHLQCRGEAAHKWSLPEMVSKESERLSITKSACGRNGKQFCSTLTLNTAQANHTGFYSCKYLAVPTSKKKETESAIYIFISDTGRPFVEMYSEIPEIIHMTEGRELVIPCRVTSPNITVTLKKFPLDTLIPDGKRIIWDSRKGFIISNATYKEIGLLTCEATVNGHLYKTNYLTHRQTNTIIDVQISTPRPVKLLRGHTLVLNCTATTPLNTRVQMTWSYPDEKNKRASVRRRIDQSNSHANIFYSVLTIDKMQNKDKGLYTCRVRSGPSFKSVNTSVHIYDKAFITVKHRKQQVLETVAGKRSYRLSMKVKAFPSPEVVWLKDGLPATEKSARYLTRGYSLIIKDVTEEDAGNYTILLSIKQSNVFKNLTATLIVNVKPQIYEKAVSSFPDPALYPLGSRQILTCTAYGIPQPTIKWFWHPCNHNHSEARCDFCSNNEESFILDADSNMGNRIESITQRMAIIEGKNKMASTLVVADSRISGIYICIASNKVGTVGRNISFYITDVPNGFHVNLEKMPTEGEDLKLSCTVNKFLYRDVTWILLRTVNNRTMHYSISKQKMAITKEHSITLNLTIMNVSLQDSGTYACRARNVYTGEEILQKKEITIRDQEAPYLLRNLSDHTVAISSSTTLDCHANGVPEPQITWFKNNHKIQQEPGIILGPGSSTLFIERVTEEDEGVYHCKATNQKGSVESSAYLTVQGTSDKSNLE
Nature of the experiment: competition ELISA, VEGFR-1-Fc coated, PlGF as competing ligand. A general note: An ELISA detects its analyte on a solid surface through an enzyme-linked reagent.

The target in experiment [2] is T1, human recombinant receptor VEGFR-1, the …. Kind of experiment: competition ELISA, VEGFR-1-Fc coated, VEGF-A as competing ligand.
Experiment [3] shares this target. Kind of experiment: competition ELISA, VEGFR-1-Fc coated, PlGF 5 ng/ml as competing ligand, peptide at 780 nM.
Experiment [4] shares this target. Kind of experiment: competition ELISA, VEGFR-1-Fc coated, PlGF or VEGF-A as competing ligand; reference iVR1.
The target is the same in experiment [5]. Nature of the experiment: competition ELISA, VEGFR-1-Fc coated, PlGF 5 ng/ml as competing ligand, peptide at 1560 nM.
Experiment [6] shares this target. Nature of the experiment: competition ELISA, VEGFR-1-Fc coated, PlGF 5 ng/ml as competing ligand, peptide at 3125 nM.
Experiment [7] has the same target. Kind of experiment: competition ELISA, VEGFR-1-Fc coated, PlGF 5 ng/ml as competing ligand, peptide at 6250 nM.
Experiment [8] shares this target. Nature of the experiment: competition ELISA, VEGFR-1-Fc coated, PlGF 5 ng/ml as competing ligand, peptide at 12500 nM.
Experiment [9] shares this target. Kind of experiment: competition ELISA, VEGFR-1-Fc coated, PlGF 5 ng/ml as competing ligand, peptide at 25000 nM.
Experiment [10] shares this target. Nature of the experiment: competition ELISA, VEGFR-1-Fc coated, PlGF 5 ng/ml as competing ligand, peptide at 50000 nM.
The target is the same in experiment [11]. Kind of experiment: competition ELISA, VEGFR-1-Fc coated, VEGF-A 5 ng/ml as competing ligand, peptide at 780 nM.
For experiment [12] the target is unchanged. Kind of experiment: competition ELISA, VEGFR-1-Fc coated, VEGF-A 5 ng/ml as competing ligand, peptide at 1560 nM.
Experiment [13] has the same target. Nature of the experiment: competition ELISA, VEGFR-1-Fc coated, VEGF-A 5 ng/ml as competing ligand, peptide at 3125 nM.
Experiment [14] has the same target. Kind of experiment: competition ELISA, VEGFR-1-Fc coated, VEGF-A 5 ng/ml as competing ligand, peptide at 6250 nM.
Experiment [15] shares this target. Nature of the experiment: competition ELISA, VEGFR-1-Fc coated, VEGF-A 5 ng/ml as competing ligand, peptide at 12500 nM.
Experiment [16] has the same target. Nature of the experiment: competition ELISA, VEGFR-1-Fc coated, VEGF-A 5 ng/ml as competing ligand, peptide at 25000 nM.
Experiment [17] shares this target. Nature of the experiment: competition ELISA, VEGFR-1-Fc coated, VEGF-A 5 ng/ml as competing ligand, peptide at 50000 nM.
The target in experiment [18] is T2, human recombinant receptor VEGFR-1, the form consisting of the seven extracellular domains of the receptor … (human, UniProt P17948 27-758).
T2 construct: Bought reagent; also called Flt-1; not shown: Fc domain of human IgG
Nature of the experiment: competition ELISA, VEGFR-1-Fc coated, VEGF-A as competing ligand. The method, then: The human recombinant receptor VEGFR-1, in particular the form consisting of the seven extracellular domains of the receptor fused to the Fc domain of human IgG (R&D Systems, cat No. 321-FL), was made to adhere in the wells of 96-well microplates at a concentration of 0.5 μg/ml in PBS pH 7.5 (100 μl/well) for 16 hours at room temperature (RT).
The binding reaction was conducted for one hour at 37° C., followed by one hour at room temperature.

B1: iVR1-Cys, tetrameric peptide of formula (IIb): [H-(R-Glu)-(S-Cys(Bzl))-(S-Cha)]4-Lys2-Lys-(D-Cys)-NH2 (peptide)
peptide: H-[dE]-Cys(Bn)-[Cha]
chain 1: Lys
chain 2: Lys-[dC]-NH2
modifications: also: branched tetramer: four arms on alpha and epsilon amines of two Lys, each bonded to an amine of the Lys of chain 3
For the molecule B1, the IC50 was under 1000 nM in experiment [1] and 1000 nM in experiment [2]. Moreover, the binding % (residual PlGF binding to VEGFR-1) in experiment [3] was 83.8%; in experiment [5], 35.5%; in experiment [6] it was 25.5%; in experiment [7], 14.1%; in [8], 12.6%; in experiment [9], 10.3%. In addition, the binding % (residual PlGF binding to VEGFR-1) in experiment [10] was found to be 9.18%. Moreover, the inhibitory capacity, fold against iVR1 in experiment [4] was 10 fold. Further, the binding % (residual VEGF-A binding to VEGFR-1) in experiment [11] is 92.3%; in [12], 43.7%; in [13], 21.7%; in [14], 12.5%; in experiment [15], 9.81%; in experiment [16] it was 7.99%. The binding % (residual VEGF-A binding to VEGFR-1) in [17] is 6.5%.

B2: tetrameric peptide having formula (II) with Y2 = D-serine (peptide)
peptide: [dE]-Cys(Bn)-[Cha]
chain 1: Lys
chain 2: Lys-[dS]-NH2
modifications: also: branched tetramer: four arms on both amines of two Lys, each bonded to an amine of the Lys of chain 3
notes: Described only as a tetrameric peptide of formula (II) with Y2 different from D-cysteine
For the molecule B2, the IC50 in experiment [18] is 2430 nM.

B3: tetrameric peptide having formula (II) with Y2 = L-cysteine (peptide)
peptide: [dE]-Cys(Bn)-[Cha]
chain 1: Lys
chain 2: Lys-Cys-NH2
modifications: also: branched tetramer: four arms on both amines of two Lys, each bonded to an amine of the Lys of chain 3
notes: as for B2
On to B3, for which, in experiment [18], the IC50 was determined as 2030 nM.

B4: iVR1, tetrameric peptide of formula (IIc): [H-(R-Glu)-(S-Cys(Bzl))-(S-Cha)]4-Lys2-Lys-Gly-NH2 (peptide)
peptide: H-[dE]-Cys(Bn)-[Cha]
chain 1: Lys
chain 2: Lys-Gly-NH2
modifications: also: branched tetramer: four arms on alpha and epsilon amines of two Lys, each bonded to an amine of the Lys of chain 3
Regarding B4, the IC50 in [1] and in experiment [2] was 10000 nM in each case. The binding % (residual PlGF binding to VEGFR-1) in experiment [3] came out at 99.4%; in experiment [5], 101%; in experiment [6], 96.1%; in experiment [7] it was 68.5%; in [8], 44.6%; in experiment [9] it was 36%. In experiment [10], the binding % (residual PlGF binding to VEGFR-1) was 26.3%. Also, the binding % (residual VEGF-A binding to VEGFR-1) in experiment [11] stood at 98.4%; in [12] it was 96.2%; in [13], 93.9%; in experiment [14], 66%; in experiment [15], 37%; in experiment [16], 21.4%. Moreover, the binding % (residual VEGF-A binding to VEGFR-1) in experiment [17] was determined as 8.6%.

B5: tetrameric peptide having formula (II) with Y2 = L-methionine sulfone (peptide)
peptide: [dE]-Cys(Bn)-[Cha]
chain 1: Lys
chain 2: Lys-[Met(O2)]-NH2
modifications: also: branched tetramer: four arms on both amines of two Lys, each bonded to an amine of the Lys of chain 3
notes: as for B2
For the molecule B5, the IC50 in [18] came out at 4620 nM.

Source of the values: US20220064216A1 (ANBITION S R L, published 2022).
